B1: HDV Ribozyme (parent)
chain: GGCCGGCAUGGUCCCAGCCUCCUCGCUGGCGCCGGCUGGGCAACAUUCCGAGGGGACCGUCCCCUCGGUAAUGGCGAAUGGGACCCA

We go through 167 variants from the RNAGym collection of RNA variant scans (doi:10.7554/elife.80360).

In this series the parent is B1. The experiment in a line: self-cleavage, relative activity (ratio to wild type); higher = more cleavage; co-transcriptional.
As to U27C A78G, the self-cleavage was found to be 0.227.
As for U27C A78U, the figure is 0.297; as for U27G A87U, 0.763.
As for U27G A87G, the self-cleavage was determined as 0.774.
For the variant U27A C63U, the self-cleavage is 0.813.
Regarding U27A C75U, the self-cleavage is 0.0519.
As for U27G U72G, the self-cleavage is 0.978.
On to U27G G74C, for which the self-cleavage was 0.302.
U27A G81U: the self-cleavage was determined as 0.502.
Take U27G G40U: the self-cleavage turned out to be 0.293.
As for U27G G40C, the figure is 0.0639; as for U27G G40A, 0.889.
Take U27G G76U: the self-cleavage worked out at 0.855.
Turning to U27G G76A, the self-cleavage was determined as 0.98.
For U27G G76C, the self-cleavage worked out at 1.14.
With U27C A51C, the self-cleavage was found to be 0.858.
On to U27C A51G, for which the self-cleavage was found to be 0.914.
As for G28A G76A, the self-cleavage is 0.0563.
Consider G28A G76U, for which the self-cleavage was 0.0923.
U27C A71C: the self-cleavage came to 0.458.
As for U27C A71U, the figure is 0.639; as for U27C A71G, 0.677.
As to U27C C63A, the self-cleavage worked out at 0.883.
On to U27C C63G, for which the self-cleavage turned out to be 0.639.
As for U27A C32G, the figure is 0.0545; as for U27A C32U, 0.923; as for U27A C32A, 0.0604.
With U27C C85A, the self-cleavage was 0.978.
U27C C85U: the self-cleavage was determined as 1.04.
Turning to G28A A87C, the self-cleavage came to 0.0676.
For G28A C32G, the self-cleavage was found to be 0.
As to G28A C32A, the self-cleavage is 0.234.
On to U27C A70G, for which the self-cleavage worked out at 0.739.
Turning to U27C A70U, the self-cleavage was 0.72.
For the variant U27G C57G, the self-cleavage stood at 0.895.
To U27G C57A belongs 1.22.
To U27G C57U belongs 0.987; to U27C G80C, 0.101.
As to U27A G52C, the self-cleavage was found to be 0.914.
On to U27A G52A, for which the self-cleavage amounted to 0.844.
Turning to G28A G31C, the self-cleavage came out at 0.
With G28A G31U, the self-cleavage was 0.133.
To U27G C44A belongs 0.475; to U27G C44U, 0.688; to G28A A78C, 0.0378.
To G28A A78G belongs 0.185.
Take G28A A78U: the self-cleavage was 0.0308.
G28A C61U: the self-cleavage came out at 0.0631.
Regarding U27A C86G, the self-cleavage turned out to be 0.918.
For the variant G28A G52U, the self-cleavage is 0.0475.
As for G28A G52A, the figure is 0.0764.
As for U27A G55U, the self-cleavage worked out at 1.14.
As to U27C C66G, the self-cleavage is 0.692.
As for U27C C66A, the figure is 0.59; as for U27G C36A, 0.0639.
Consider U27G C36U, for which the self-cleavage is 0.322.
Take U27A C58A: the self-cleavage is 0.997.
For U27A C58U, the self-cleavage was 0.937.
Turning to U27G G35C, the self-cleavage was determined as 0.0594.
In the case of U27G G35A, the self-cleavage turned out to be 0.295.
On to U27G G35U, for which the self-cleavage is 0.277.
As for U27C G35C, the self-cleavage was determined as 0.
With G28C A42G, the self-cleavage was determined as 0.
As for G28A G29A, the self-cleavage amounted to 0.0978.
As for G28A G29C, the figure is 0.0519.
G28A G29U: the self-cleavage is 0.111.
For the variant G28A A51C, the self-cleavage was determined as 0.
With G28A A51G, the self-cleavage is 0.0326.
As for U27C A42U, the self-cleavage was determined as 0.475.
As for U27G A83U, the figure is 0.791; as for U27G A83G, 0.755.
U27C G50C: the self-cleavage worked out at 0.858.
Take U27G G52C: the self-cleavage stood at 1.02.
As to U27A C41A, the self-cleavage was found to be 0.895.
To G28A U37C belongs 0.151; to G28A A56G, 0.135; to U27A C36A, 0.
U27A C36U: the self-cleavage was 0.538.
As for U27G U37C, the self-cleavage came to 0.762.
In the case of U27G A70G, the self-cleavage was 1.14.
Take U27C G59C: the self-cleavage was found to be 0.751.
Consider U27C G59A, for which the self-cleavage came out at 0.742.
With G28A U79G, the self-cleavage was 0.0489.
Turning to U27A G39C, the self-cleavage came out at 0.0504.
On to U27A G39A, for which the self-cleavage worked out at 0.356.
Regarding U27G U65C, the self-cleavage is 0.965.
Turning to U27G U65G, the self-cleavage amounted to 0.95.
As for U27G U65A, the figure is 1.03.
To G28A C33A belongs 0.107.
As for U27A G35U, the self-cleavage stood at 0.201.
Take U27A G35A: the self-cleavage was 0.369.
As for U27A G35C, the self-cleavage was determined as 0.201.
For U27C U69C, the self-cleavage stood at 0.931.
As for U27A C64U, the figure is 0.855; as for U27C G76A, 0.869; as for U27C G76U, 0.883.
On to U27A C48G, for which the self-cleavage stood at 1.09.
Regarding U27A C48A, the self-cleavage amounted to 0.831.
As for U27G G55U, the self-cleavage was 1.
In the case of U27G U79C, the self-cleavage came out at 0.308.
For U27C G28A, the self-cleavage came out at 0.135.
As for U27C G28U, the figure is 0.0678.
Take G28A G34U: the self-cleavage stood at 0.0277.
As for U27A U65A, the self-cleavage turned out to be 0.95.
Regarding U27G C49G, the self-cleavage is 0.665.
U27G G31C: the self-cleavage amounted to 0.344.
As for U27G G31U, the figure is 0.293.
Consider U27C A87C, for which the self-cleavage was 0.595.
For the variant U27G A77C, the self-cleavage turned out to be 0.277.
Turning to U27A U46C, the self-cleavage came out at 0.733.
As to U27A U46G, the self-cleavage amounted to 0.369.
In the case of G28A C36G, the self-cleavage is 0.0519.
For U27C C30G, the self-cleavage is 0.
U27C C30U: the self-cleavage amounted to 0.426.
For U27C C30A, the self-cleavage was found to be 0.415.
Regarding U27A U72G, the self-cleavage is 0.739.
With U27A U72A, the self-cleavage was 0.266.
G28A C86A: the self-cleavage amounted to 0.0256.
In the case of U27A U79C, the self-cleavage was 0.201.
On to U27A C57U, for which the self-cleavage is 1.01.
Regarding U27A C57G, the self-cleavage came out at 0.8.
With G28A C58A, the self-cleavage was determined as 0.0639.
Turning to G28A C58U, the self-cleavage turned out to be 0.0228.
As to U27G G39A, the self-cleavage is 0.196.
As to U27C C75U, the self-cleavage was determined as 0.161.
For U27C C62G, the self-cleavage amounted to 0.615.
As for U27C C62U, the self-cleavage was 0.851.
To U27A U69A belongs 0.831; to U27A U69G, 1.02.
In the case of U27A U69C, the self-cleavage was determined as 1.11.
U27A G59A: the self-cleavage came to 0.919.
Take G28A U69G: the self-cleavage stood at 0.
As for U27G A78G, the self-cleavage worked out at 0.532.
For U27G A78C, the self-cleavage was found to be 0.499.
With U27C A43C, the self-cleavage came to 0.172.
As for U27A G54U, the self-cleavage was 0.845.
Turning to U27C C84A, the self-cleavage was found to be 0.923.
U27C C84U: the self-cleavage was 0.65.
For U27A G76U, the self-cleavage came to 0.65.
In the case of U27C C58A, the self-cleavage is 0.458.
Consider U27C C58U, for which the self-cleavage is 0.539.
As for U27G C64G, the self-cleavage was 0.87.
On to U27A C66G, for which the self-cleavage was determined as 0.755.
As for U27A C66A, the figure is 0.886; as for U27C G38U, 0.131; as for U27C G38A, 0.0978.
G28A G73C: the self-cleavage amounted to 0.0256.
As for G28A G73U, the figure is 0.0326; as for G28A C62A, 0.0297.
G28A C62G: the self-cleavage amounted to 0.111.
With U27C G81C, the self-cleavage was found to be 0.369.
On to G28A U65G, for which the self-cleavage stood at 0.0386.
As for G28A U65A, the self-cleavage was found to be 0.0755.
In the case of U27G C32U, the self-cleavage was 0.831.
As to U27G C32G, the self-cleavage was 0.
To U27G C32A belongs 0.185.
To U27G C75U belongs 0.138; to U27G C58A, 0.516.
In the case of U27G C58G, the self-cleavage amounted to 0.95.
To U27G G28C belongs 0.554; to U27G G28U, 0.612.
As for U27G G28A, the figure is 0.499.
Regarding G28A C49A, the self-cleavage was determined as 0.111.
For G28A C49U, the self-cleavage was 0.0683.
On to G28A G50C, for which the self-cleavage was determined as 0.0978.
As for U27C U60G, the figure is 0.875; as for U27C U60C, 0.677.
